What is called Kd is the constant that tells how readily two partners part at equilibrium.

The record followed here is paper PMC3179271.

Experiment [1] deals with FLAG-V5-Blow (Drosophila). In words: co-IP.
Experiment [2] deals with FLAG-V5-WASP (Drosophila). Description: co-IP.

For the substance FLAG-Sltr (natural protein), the Kd in experiment [1] was 48.1 nM; in experiment [2], 6.7 nM.
